T1: FcγRIIa R (human, UniProt P12318 34-217)
T1 construct: extracellular domain; also called FcgRIIa R type; 2aR
T1 sequence (looked up): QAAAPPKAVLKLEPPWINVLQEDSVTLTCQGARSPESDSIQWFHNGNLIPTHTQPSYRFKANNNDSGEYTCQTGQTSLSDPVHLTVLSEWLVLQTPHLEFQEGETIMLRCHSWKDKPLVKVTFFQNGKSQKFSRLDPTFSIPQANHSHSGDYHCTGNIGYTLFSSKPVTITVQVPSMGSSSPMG

T2: FcγRIIb (human, UniProt P31994 43-217)
T2 construct: extracellular domain; also called FcgRIIb; 2b
T2 sequence (looked up): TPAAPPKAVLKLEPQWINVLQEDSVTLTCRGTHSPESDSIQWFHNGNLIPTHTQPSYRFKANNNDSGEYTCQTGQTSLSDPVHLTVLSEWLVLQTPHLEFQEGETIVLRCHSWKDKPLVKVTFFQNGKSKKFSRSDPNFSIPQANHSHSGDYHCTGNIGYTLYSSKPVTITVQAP

B1: GpH7-A5/GpH7-B3 variant E269_01G/GpL16-k0 (antibody, human IgG1, kappa)
heavy 1: not shown
heavy 2: not shown
light: DIVMTQSPLSLPVTPGEPASISCQASESLVHSNRNTYLHWYLQKPGQSPQLLIYKVSNRFSGVPDRFSGSGSGTDFTLKISRVEAEDVGVYYCSQNTHVPPTFGQGTKVEIERTVAAPSVFIFPPSDEQLKSGTASVVCLLNNFYPREAKVQWKVDNALQSGNSQESVTEQDSKDSTYSLSSTLTLSKADYEKHKVYACEVTHQGLSSPVTKSFNRGEC
notes: heterodimerized antibody, mutation in the GpH7-B3 chain only; also called He Ab
B2: GpH7-A5/GpH7-B3 variant D265_19Q/GpL16-k0 (antibody, human IgG1, kappa)
heavy 1: not shown
heavy 2: not shown
light: B1 light
notes: as for B1
B3: GpH7-A5/GpH7-B3 variant D265_16H/GpL16-k0 (antibody, human IgG1, kappa)
heavy 1: not shown
heavy 2: not shown
light: B1 light
notes: as for B1
B4: GpH7-A5/GpH7-B3 variant E269_02A/GpL16-k0 (antibody, human IgG1, kappa)
heavy 1: not shown
heavy 2: not shown
light: B1 light
notes: as for B1
B5: GpH7-A5/GpH7-B3 variant D265_10E/GpL16-k0 (antibody, human IgG1, kappa)
heavy 1: not shown
heavy 2: not shown
light: B1 light
notes: as for B1
B6: GpH7-A5/GpH7-B3 variant D265_14T/GpL16-k0 (antibody, human IgG1, kappa)
heavy 1: not shown
heavy 2: not shown
light: B1 light
notes: as for B1
B7: GpH7-A5/GpH7-B3 variant D265_11K/GpL16-k0 (antibody, human IgG1, kappa)
heavy 1: not shown
heavy 2: not shown
light: B1 light
notes: as for B1
B8: GpH7-A5/GpH7-B3 variant D265_12R/GpL16-k0 (antibody, human IgG1, kappa)
heavy 1: not shown
heavy 2: not shown
light: B1 light
notes: as for B1
B9: GpH7-A5/GpH7-B3 variant D265_13S/GpL16-k0 (antibody, human IgG1, kappa)
heavy 1: not shown
heavy 2: not shown
light: B1 light
notes: as for B1
B10: GpH7-A5/GpH7-B3 variant D265_18N/GpL16-k0 (antibody, human IgG1, kappa)
heavy 1: not shown
heavy 2: not shown
light: B1 light
notes: as for B1
B11: GpH7-B3 variant K326_07I/GpL16-k0 (antibody, human IgG1, kappa)
heavy: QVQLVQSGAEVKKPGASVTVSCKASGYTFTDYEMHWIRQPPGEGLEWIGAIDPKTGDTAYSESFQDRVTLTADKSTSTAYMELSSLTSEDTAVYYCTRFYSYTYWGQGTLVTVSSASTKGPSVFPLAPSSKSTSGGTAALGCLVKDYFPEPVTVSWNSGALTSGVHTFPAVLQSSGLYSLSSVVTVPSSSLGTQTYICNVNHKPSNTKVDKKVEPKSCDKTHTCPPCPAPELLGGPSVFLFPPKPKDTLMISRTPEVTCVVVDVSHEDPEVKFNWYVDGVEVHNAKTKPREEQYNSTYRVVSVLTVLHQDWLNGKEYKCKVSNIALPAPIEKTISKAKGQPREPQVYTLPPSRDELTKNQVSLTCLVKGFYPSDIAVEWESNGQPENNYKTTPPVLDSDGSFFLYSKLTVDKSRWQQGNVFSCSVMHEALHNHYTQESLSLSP
light: B1 light
notes: also called Ho Ab K326_07I
B12: GpH7-B3-03-20W/GpL16-k0 (antibody, human IgG1, kappa)
heavy: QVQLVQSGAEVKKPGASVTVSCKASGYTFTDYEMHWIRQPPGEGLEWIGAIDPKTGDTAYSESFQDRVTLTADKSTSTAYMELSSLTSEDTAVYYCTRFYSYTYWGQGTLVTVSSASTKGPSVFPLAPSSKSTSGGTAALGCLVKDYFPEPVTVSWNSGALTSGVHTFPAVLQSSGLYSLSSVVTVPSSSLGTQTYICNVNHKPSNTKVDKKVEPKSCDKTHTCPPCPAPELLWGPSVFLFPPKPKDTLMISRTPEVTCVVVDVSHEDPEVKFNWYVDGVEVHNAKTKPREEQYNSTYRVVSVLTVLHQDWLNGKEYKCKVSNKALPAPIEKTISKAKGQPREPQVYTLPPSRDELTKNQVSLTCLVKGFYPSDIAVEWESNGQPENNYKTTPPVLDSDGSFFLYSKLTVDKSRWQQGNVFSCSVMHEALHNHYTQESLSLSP
light: B1 light
notes: also called Ho Ab G236_20W; GpH7-B3 variant G236_20W/GpL16-k0
B13: GpH7-B16/GpL16-k0 (antibody, human IgG1, kappa)
heavy: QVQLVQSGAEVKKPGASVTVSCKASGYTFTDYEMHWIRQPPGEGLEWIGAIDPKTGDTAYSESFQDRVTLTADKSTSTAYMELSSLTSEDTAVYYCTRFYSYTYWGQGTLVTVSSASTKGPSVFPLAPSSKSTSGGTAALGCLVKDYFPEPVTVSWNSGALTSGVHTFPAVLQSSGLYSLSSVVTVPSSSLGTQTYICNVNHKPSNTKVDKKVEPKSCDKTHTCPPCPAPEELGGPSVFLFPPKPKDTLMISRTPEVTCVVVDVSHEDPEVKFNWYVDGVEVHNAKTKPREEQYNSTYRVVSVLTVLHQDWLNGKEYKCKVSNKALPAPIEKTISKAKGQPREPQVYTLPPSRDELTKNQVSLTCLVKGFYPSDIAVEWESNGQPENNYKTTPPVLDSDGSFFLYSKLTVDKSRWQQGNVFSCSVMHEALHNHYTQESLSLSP
light: B1 light
notes: also called Ho Ab L234_10E; GpH7-B3 variant L234_10E/GpL16-k0
B14: GpH7-B3-01-15Y/GpL16-k0 (antibody, human IgG1, kappa)
heavy: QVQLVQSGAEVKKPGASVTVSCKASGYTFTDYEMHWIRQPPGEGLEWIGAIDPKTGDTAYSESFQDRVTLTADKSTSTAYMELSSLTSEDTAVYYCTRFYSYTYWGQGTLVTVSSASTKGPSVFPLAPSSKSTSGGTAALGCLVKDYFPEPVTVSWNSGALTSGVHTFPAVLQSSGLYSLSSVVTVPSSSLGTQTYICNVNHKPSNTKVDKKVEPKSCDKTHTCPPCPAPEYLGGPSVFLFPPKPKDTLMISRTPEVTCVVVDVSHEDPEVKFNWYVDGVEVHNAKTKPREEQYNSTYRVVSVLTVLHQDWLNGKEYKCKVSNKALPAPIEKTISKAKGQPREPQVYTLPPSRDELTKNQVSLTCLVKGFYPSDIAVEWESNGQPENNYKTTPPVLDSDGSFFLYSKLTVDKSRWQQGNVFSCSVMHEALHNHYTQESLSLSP
light: B1 light
notes: also called Ho Ab L234_15Y; GpH7-B3 variant L234_15Y/GpL16-k0
B15: GpH7-B3 variant K334_09D/GpL16-k0 (antibody, human IgG1, kappa)
heavy: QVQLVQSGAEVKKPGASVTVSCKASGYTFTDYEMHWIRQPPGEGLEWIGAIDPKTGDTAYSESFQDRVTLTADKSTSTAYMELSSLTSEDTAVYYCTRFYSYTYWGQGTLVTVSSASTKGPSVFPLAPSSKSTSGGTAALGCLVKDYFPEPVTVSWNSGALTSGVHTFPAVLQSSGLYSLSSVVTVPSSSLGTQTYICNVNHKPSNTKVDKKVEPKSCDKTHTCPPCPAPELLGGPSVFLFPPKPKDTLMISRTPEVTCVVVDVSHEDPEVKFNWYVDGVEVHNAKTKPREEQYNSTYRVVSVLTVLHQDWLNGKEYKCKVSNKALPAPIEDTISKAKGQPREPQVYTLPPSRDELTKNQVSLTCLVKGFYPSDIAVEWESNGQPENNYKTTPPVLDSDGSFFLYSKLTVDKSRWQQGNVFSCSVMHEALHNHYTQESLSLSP
light: B1 light
notes: also called Ho Ab K334_09D
B16: GpH7-B3 variant K326_08L/GpL16-k0 (antibody, human IgG1, kappa)
heavy: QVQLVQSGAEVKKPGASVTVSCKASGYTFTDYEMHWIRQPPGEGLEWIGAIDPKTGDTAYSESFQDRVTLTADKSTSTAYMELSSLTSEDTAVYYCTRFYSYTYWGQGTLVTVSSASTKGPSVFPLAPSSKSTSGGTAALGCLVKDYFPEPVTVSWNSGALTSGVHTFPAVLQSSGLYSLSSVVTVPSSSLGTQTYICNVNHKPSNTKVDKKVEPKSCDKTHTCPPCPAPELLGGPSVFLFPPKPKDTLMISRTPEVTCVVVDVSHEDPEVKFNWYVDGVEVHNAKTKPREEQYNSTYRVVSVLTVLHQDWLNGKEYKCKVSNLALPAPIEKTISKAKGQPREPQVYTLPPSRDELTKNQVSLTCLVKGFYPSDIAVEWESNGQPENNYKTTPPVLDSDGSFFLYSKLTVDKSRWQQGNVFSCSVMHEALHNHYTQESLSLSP
light: B1 light
notes: also called Ho Ab K326_08L
B17: GpH7-B3 variant S324_15Y/GpL16-k0 (antibody, human IgG1, kappa)
heavy: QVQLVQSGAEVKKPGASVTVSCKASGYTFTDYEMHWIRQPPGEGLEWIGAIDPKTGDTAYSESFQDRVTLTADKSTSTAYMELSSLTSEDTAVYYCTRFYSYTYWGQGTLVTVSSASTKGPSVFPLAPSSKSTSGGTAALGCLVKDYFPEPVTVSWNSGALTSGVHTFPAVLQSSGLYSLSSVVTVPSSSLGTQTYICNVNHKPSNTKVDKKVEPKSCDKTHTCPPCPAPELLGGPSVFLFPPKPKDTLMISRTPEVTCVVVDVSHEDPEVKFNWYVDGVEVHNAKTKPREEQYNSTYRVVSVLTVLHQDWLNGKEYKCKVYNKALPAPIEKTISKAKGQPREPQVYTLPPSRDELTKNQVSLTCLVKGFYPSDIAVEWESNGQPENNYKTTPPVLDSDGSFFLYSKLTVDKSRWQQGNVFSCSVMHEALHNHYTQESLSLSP
light: B1 light
notes: also called Ho Ab S324_15Y
B18: GpH7-B3 variant L234_07I/GpL16-k0 (antibody, human IgG1, kappa)
heavy: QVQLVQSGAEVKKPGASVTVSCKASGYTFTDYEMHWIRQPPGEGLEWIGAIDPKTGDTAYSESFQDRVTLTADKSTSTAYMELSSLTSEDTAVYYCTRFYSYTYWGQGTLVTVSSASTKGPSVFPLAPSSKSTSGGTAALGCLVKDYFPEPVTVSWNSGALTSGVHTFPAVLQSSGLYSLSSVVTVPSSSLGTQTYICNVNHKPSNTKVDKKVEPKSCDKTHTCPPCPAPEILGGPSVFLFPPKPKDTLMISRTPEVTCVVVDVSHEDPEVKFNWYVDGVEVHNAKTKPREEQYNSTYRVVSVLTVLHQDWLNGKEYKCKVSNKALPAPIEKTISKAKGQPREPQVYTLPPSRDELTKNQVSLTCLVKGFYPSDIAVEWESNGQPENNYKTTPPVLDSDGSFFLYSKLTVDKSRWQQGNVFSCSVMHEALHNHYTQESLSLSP
light: B1 light
notes: also called Ho Ab L234_07I
B19: GpH7-B3 variant T335_20W/GpL16-k0 (antibody, human IgG1, kappa)
heavy: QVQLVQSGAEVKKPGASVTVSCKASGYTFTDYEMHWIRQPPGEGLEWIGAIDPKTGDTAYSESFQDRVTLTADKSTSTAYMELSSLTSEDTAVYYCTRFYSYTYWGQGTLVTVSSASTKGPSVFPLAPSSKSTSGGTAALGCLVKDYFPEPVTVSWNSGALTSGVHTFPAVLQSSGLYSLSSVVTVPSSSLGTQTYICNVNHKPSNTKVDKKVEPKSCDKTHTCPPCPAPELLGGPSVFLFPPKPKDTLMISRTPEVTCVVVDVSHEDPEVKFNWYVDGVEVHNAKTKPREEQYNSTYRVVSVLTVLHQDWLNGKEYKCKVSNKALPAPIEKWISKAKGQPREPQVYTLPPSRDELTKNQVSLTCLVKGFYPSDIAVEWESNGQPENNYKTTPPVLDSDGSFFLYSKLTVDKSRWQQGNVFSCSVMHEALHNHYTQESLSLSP
light: B1 light
notes: also called Ho Ab T335_20W
B20: GpH7-B3 variant S298_14T/GpL16-k0 (antibody, human IgG1, kappa)
heavy: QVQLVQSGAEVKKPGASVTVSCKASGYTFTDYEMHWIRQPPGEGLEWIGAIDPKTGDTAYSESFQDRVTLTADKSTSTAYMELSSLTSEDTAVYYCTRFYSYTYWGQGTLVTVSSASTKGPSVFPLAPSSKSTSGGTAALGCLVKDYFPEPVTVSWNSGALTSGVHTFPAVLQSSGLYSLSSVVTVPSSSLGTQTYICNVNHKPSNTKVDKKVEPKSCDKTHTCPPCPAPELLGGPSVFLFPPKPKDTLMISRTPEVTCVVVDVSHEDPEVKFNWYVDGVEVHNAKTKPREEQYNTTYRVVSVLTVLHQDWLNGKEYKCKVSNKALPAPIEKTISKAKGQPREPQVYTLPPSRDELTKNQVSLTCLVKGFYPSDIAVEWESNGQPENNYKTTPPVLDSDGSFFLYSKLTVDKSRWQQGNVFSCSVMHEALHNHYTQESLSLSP
light: B1 light
notes: also called Ho Ab S298_14T
B21: GpH7-B3 variant S267_02A/GpL16-k0 (antibody, human IgG1, kappa)
heavy: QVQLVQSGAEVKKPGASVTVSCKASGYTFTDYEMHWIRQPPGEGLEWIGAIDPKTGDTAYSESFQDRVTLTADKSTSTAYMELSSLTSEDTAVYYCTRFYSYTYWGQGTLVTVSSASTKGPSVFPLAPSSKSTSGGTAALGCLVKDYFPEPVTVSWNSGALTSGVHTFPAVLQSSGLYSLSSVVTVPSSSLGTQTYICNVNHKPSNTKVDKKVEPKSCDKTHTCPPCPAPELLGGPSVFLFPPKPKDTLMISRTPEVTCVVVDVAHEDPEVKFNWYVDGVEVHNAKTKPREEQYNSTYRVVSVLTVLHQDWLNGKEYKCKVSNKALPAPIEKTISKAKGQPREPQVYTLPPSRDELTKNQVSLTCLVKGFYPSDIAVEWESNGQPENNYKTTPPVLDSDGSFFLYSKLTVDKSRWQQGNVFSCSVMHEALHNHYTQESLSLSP
light: B1 light
notes: also called Ho Ab S267_02A
B22: GpH7-B3 variant K334_01G/GpL16-k0 (antibody, human IgG1, kappa)
heavy: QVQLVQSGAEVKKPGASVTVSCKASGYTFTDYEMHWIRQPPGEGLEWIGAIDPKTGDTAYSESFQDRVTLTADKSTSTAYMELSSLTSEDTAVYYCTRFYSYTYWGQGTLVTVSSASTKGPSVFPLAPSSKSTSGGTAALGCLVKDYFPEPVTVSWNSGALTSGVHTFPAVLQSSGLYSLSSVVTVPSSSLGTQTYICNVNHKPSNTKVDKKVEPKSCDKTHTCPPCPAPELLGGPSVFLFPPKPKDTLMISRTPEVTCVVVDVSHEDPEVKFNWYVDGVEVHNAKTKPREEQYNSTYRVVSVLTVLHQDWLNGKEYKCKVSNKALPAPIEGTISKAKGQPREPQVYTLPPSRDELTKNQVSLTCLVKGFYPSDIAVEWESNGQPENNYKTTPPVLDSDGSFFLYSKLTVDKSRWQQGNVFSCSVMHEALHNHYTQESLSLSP
light: B1 light
notes: also called Ho Ab K334_01G

biological target: T1, FcγRIIa R; experiment: SPR; He/Con_2aR divided by He/Con_2b (FcγRIIb as reference)
Protocol: (§1) The heterodimerized antibodies He Abs in which one of the H chains was introduced with an alteration were assayed for their binding activities to each activating FcγR and inhibitory FcγR according to the method described in Example 4. […] The activating FcγRs in FIGS. 26, 27, 28, and 29 are FcγRIa, FcγRIIa (R), FcγRIIa (H), and FcγRIIIa, respectively.
(§2) Analysis of interaction between objective antibody and the FcγR was carried out using Biacore T100 (GE Healthcare). HBS-EP+ (GE Healthcare) was used as the running buffer, and the measurement temperature was set to 25° C. Chips produced by immobilizing the antigen peptide by the amine coupling method to a Series S Sencor Chip CM5 (GE Healthcare), or alternatively, chips produced by allowing preliminarily biotinylated antigen peptides to interact with and immobilize onto a Series S Sensor Chip SA (certified) (GE Healthcare) were used. Antibodies of interest were captured onto an antigen peptide-immobilized chip, and allowed to interact to each FcγR diluted with running buffer. To regenerate and repeatedly use the chip, the antibodies captured on the chip were washed off by reacting 10 mM glycine-HCl, pH 1.5.

Row | IIaR/IIb (He_2aR/2b) [ratio] | Binder
1 | 1.27 | B1
2 | 1.64 | B2
3 | 1.51 | B3
4 | 1.31 | B4
5 | 1.52 | B5
6 | 1.61 | B6
7 | 2.26 | B7
8 | 2.15 | B8
9 | 1.81 | B9
10 | 2.02 | B10

biological target: T3, FcγRIIIa extracellular domain with C-terminal His tag (human, UniProt P08637 17-208); experiment: SPR relative binding; GpH7-B3/GpL16-k0 = 100
T3 construct: extracellular domain; also called FcgRIIIa; 3a; not shown: His tag at the C terminus
Protocol: as §2
The FcγR-binding activity of each antibody was assessed primarily using as an indicator the FcγR-binding activity and dissociation constant for FcγR.

T3 sequence (P08637 17-208): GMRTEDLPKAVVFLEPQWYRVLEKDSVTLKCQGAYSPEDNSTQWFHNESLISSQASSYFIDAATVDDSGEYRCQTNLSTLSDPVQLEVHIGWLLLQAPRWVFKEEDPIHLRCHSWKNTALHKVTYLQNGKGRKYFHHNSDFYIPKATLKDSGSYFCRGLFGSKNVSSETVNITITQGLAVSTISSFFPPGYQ

Row | Ho/Con_3a | Binder
11 | 134 % of control | B11
12 | 58.3 % of control | B12
13 | 64.7 % of control | B13
14 | 64.7 % of control | B14
15 | 150 % of control | B15
16 | 114 % of control | B16
17 | 100 % of control | B17
18 | 98.2 % of control | B18
19 | 91.8 % of control | B19
20 | 107 % of control | B20
21 | 145 % of control | B21
22 | 104 % of control | B22

biological target: T2, FcγRIIb; experiment: SPR (Biacore), antibody captured, FcγR as analyte; relative binding
Protocol: as §1, §2

Row | He/Con_2b (IIb binding) | Binder
23 | 51.5 % of GpH7-A5/GpH7-B3/GpL16-k0 (=100) | B1
24 | 33.4 % of GpH7-A5/GpH7-B3/GpL16-k0 (=100) | B2
25 | 38.3 % of GpH7-A5/GpH7-B3/GpL16-k0 (=100) | B3
26 | 49.9 % of GpH7-A5/GpH7-B3/GpL16-k0 (=100) | B4
27 | 38.2 % of GpH7-A5/GpH7-B3/GpL16-k0 (=100) | B5
28 | 16 % of GpH7-A5/GpH7-B3/GpL16-k0 (=100) | B6
29 | 14.9 % of GpH7-A5/GpH7-B3/GpL16-k0 (=100) | B7
30 | 15 % of GpH7-A5/GpH7-B3/GpL16-k0 (=100) | B8
31 | 11.3 % of GpH7-A5/GpH7-B3/GpL16-k0 (=100) | B9
32 | 6.1 % of GpH7-A5/GpH7-B3/GpL16-k0 (=100) | B10

biological target: T1, FcγRIIa R; experiment: as above
Protocol: as §1, §2

Row | He/Con_2aR (IIaR binding) | Binder
33 | 65.3 % of GpH7-A5/GpH7-B3/GpL16-k0 (=100) | B1
34 | 54.8 % of GpH7-A5/GpH7-B3/GpL16-k0 (=100) | B2
35 | 58 % of GpH7-A5/GpH7-B3/GpL16-k0 (=100) | B3
36 | 65.3 % of GpH7-A5/GpH7-B3/GpL16-k0 (=100) | B4
37 | 58.2 % of GpH7-A5/GpH7-B3/GpL16-k0 (=100) | B5
38 | 25.8 % of GpH7-A5/GpH7-B3/GpL16-k0 (=100) | B6
39 | 33.7 % of GpH7-A5/GpH7-B3/GpL16-k0 (=100) | B7
40 | 32.2 % of GpH7-A5/GpH7-B3/GpL16-k0 (=100) | B8
41 | 20.5 % of GpH7-A5/GpH7-B3/GpL16-k0 (=100) | B9
42 | 12.4 % of GpH7-A5/GpH7-B3/GpL16-k0 (=100) | B10

— US20180155451A1 (published 2018)
